The target of one test is Murine CD73 ECD (murine) (UniProt Q61503). The test can be described thus: binding assay, format not stated.
In test [1] the target is Cynomolgus CD73 ECD (cynomolgus). The test can be described thus: binding assay, format not stated.
Sequence of Cynomolgus CD73 ECD (cynomolgus) (chain, as listed by the source): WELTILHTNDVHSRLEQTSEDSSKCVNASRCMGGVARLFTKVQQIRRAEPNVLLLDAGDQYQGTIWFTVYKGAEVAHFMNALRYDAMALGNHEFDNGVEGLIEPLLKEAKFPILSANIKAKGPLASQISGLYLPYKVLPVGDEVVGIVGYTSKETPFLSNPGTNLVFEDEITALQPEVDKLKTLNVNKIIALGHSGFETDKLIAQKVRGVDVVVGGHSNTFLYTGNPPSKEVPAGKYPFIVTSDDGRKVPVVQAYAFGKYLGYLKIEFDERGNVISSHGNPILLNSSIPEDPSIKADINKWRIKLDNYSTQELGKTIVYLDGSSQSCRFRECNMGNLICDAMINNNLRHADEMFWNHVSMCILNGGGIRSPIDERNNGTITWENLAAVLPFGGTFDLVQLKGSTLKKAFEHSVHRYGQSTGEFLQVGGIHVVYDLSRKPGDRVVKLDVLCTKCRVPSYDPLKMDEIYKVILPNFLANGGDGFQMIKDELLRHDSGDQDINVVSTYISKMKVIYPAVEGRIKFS

Sequence of Murine CD73 ECD (murine) (Q61503 29-551 limits assumed): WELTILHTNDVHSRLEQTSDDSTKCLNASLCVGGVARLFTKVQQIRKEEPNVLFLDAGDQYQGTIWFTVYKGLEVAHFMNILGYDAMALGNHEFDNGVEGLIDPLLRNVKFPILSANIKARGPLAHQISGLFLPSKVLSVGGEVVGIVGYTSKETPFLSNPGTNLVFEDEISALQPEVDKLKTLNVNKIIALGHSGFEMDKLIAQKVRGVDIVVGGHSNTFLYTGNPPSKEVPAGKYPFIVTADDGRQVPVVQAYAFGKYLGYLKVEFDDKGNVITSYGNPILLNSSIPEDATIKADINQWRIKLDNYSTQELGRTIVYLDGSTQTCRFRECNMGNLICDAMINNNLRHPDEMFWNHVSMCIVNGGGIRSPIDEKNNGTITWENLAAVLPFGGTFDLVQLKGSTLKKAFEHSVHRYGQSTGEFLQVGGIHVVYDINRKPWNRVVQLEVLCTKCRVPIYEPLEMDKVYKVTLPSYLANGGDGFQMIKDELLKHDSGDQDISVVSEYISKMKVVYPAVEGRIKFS

B1: CD730047 (antibody, V domains shown)
VH: EVQLVQSGGGVVQPGRSLRLSCAASGFTFSSYGMHWVRQAPGKGLEWVAVISYDGSIKYYADSVKGRFAISRDNAKNTLYLQMNSLRREDTAMYYCASGLTGVAGALGVWGRGTLVTVSS
VL: QSVLTQPPSASGAPGQRVTISCSGSSSNIGSNTVNWYQRLPGAAPQLLIYNNDQRPSGIPDRFSGSKSGTSGSLVISGLQSEDEADYYCAAWDDSLSGNVFGTGTKVTVL
With B1, the 1/EC50 (with Murine CD73 ECD (murine); in test [1]) was 0 nM⁻¹ each time.

B2: CD730042 (antibody, V domains shown)
VH: GVQLVQSGGGLVQPGGSLRLSCAASGFTFSSYGMHWVRQAPGKGLEWVAVISYDGSIKYYADSVKGRFTISRDDSKNALYLQMNSLRAEDTAVYYCSTLSGSYGYFDYWGRGTLVTVSS
VL: QSVLTQPASVSGSPGQSITISCAGTSSDVGGYNYVSWYQQHPGKAPKLMIYEGSKRPSGVSNRFSGSKSGNTASLTISGLQAEDEADYYCSSYTTRSTRVFGGGTKLTVL
In turn, B2 gave a 1/EC50 with Murine CD73 ECD (murine) of 0 nM⁻¹.
